Measurements: publication PMC3843635 (Protein Science : A Publication of the Protein Society, 2013)
Like-named read-outs stand apart in the source and are kept apart here. Where a SMILES comes first, the peptide text is derived from it. The star is where a group is joined. Bz = O=C(c1ccccc1)*

How the values were obtained:
[1] = target: Keap1-Nrf2 protein-protein interaction (CFP-Nrf2 and YFP-Kelch) (Homo sapiens, UniProt Q14145); test: FRET competition assay; assay type: binding; conditions: for binding activity relative to peptide 1: FRET competition, 7-mer peptides; for effect on association between CFP-Nrf2 and YFP-Kelch (FRET efficiency): unlabeled 16-mer peptides, competition assay, Fig. 5
Chain of Keap1-Nrf2 protein-protein interaction (CFP-Nrf2 and YFP-Kelch) (Q14145 321-609): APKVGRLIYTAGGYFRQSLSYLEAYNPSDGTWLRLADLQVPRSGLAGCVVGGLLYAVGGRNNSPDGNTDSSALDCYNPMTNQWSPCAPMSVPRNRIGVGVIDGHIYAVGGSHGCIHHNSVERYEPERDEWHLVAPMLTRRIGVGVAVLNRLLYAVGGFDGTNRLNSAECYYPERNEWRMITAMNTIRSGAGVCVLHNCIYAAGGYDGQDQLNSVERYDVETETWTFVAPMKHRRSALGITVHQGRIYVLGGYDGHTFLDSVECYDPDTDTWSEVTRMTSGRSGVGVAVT

[2] = test system: Keap1-Nrf2 protein-protein interaction; conditions: read-out: FP IC50 ± SE; previously described FP assay; cited from earlier work
[3] = target: T1, YFP conjugated to the human Keap1 Kelch domain (YFP-Kelch) (human, UniProt Q14145 321-609); test: FRET or BRET
T1 sequence (Q14145 321-609): as above

[4] = target: T1, YFP conjugated to the human Keap1 Kelch …; test: FRET or BRET; remark: listed apart in the source
[5] = target: T1, YFP conjugated to the human Keap1 Kelch …; test: FRET or BRET; remark: listed apart in the source

CC(=O)N[C@@H](CC(=O)O)C(=O)N1CCC[C@H]1C(=O)N[C@@H](CCC(=O)O)C(=O)N[C@H](C(=O)NCC(=O)N[C@@H](CCC(=O)O)C(=O)N[C@@H](Cc1ccccc1)C(=O)O)[C@@H](C)O [Peptide 3, Ac-DPETGEF-OH] (Ac-DPETGEF-OH)
binding activity relative to peptide 1 [1]: increased binding activity | IC50 [2]: 250 ± 40 nM

CC(C)C[C@H](NC(=O)[C@H](CCC(=O)O)NC(=O)CNC(=O)[C@@H](NC(=O)[C@H](CCC(=O)O)NC(=O)[C@@H]1CCCN1C(=O)[C@H](CC(=O)O)NC(=O)c1ccccc1)[C@@H](C)O)C(=O)O [Peptide 4, Ph-DPETGEL-OH] (Bz-DPETGEL-OH; N-terminus assumed)
binding activity relative to peptide 1 [1]: increased binding activity | IC50 [2]: 160 ± 20 nM

E78P/F83L (AFFAQLQLDPETGELL)
effect on association between CFP-Nrf2 and YFP-Kelch (FRET efficiency) [1]: dose-dependent reduction in FE

E79Q (AFFAQLQLDEQTGEFL) [Peptide E79Q, reference compound]
effect on association between CFP-Nrf2 and YFP-Kelch (FRET efficiency) [1]: unable to perturb the association

E82D (AFFAQLQLDEETGDFL) [Peptide E82D, reference compound]
effect on association between CFP-Nrf2 and YFP-Kelch (FRET efficiency) [1]: unable to perturb the association

T80K (AFFAQLQLDEEKGEFL) [Peptide T80K, reference compound]
effect on association between CFP-Nrf2 and YFP-Kelch (FRET efficiency) [1]: unable to perturb the association

B1: CFP-T80K (peptide)
chain: AFFAQLQLDEEKGEFL
Kd [3]: > 100 nM

B2: CFP-E82D (peptide)
chain: AFFAQLQLDEETGDFL
Kd [3]: > 100 nM

B3: CFP-E79Q (peptide)
chain: AFFAQLQLDEQTGEFL
Kd [3]: > 100 nM

B4: CFP-E78P/F83L (peptide)
chain: AFFAQLQLDPETGELL
Kd [3]: 40 nM

B5: peptide 3, Ac-DPETGEF-OH (peptide)
peptide: Ac-DPETGEF-OH
IC50 [4]: 330 nM

B6: E78P/F83L unlabeled 16-mer peptide (peptide)
peptide: AFFAQLQLDPETGELL
IC50 [5]: 80 nM
